Measurements reported in US20250109212A1 (BIOSION, published 2025).

Legend:
[1] = target: human CD40-Fc protein (prepared in-house) (human); assay: competitive ELISA: human CD40-Fc coated, blocked ligand biotin-labeled human CD40L-his, OD(450-630)
Method: (§1) The ability of the recombinant fusion proteins of the disclosure to block CD40-CD40L binding was measured in a competitive ELISA assay. Briefly, 100 μl/well human CD40-Fc proteins (prepared in-house with amino acid sequence of SEQ ID NO: 22) were coated on 96-well micro plates at 2 μg/mL in coating buffer (carbonate/bicarbonate buffer) and incubated overnight at 4° C. The next day, the plates were washed once with wash buffer (PBS+0.05% v/v Tween-20, PBST), and then blocked with 5% w/v non-fatty milk in PBST for 2 hours at 37° C. The plates were then washed 4 times using the wash buffer.
Serially diluted recombinant fusion proteins of the disclosure or controls (starting at 10 µg/mL with a 5-fold serial dilution) in PBST with 2.5% w/v non-fatty milk were added to the CD40-Fc bound plates, 100 μl per well, and incubated at 37° C. for 40 minutes. The plates were washed 4 times using wash buffer, and then added and incubated for 40 minutes at 37° C. with 100 μl/well 95 ng/mL biotin-labeled human CD40L-his protein (Cat #: 10239-H08E, Sino biological). The plates were washed again using wash buffer, added with 100 μl/well streptavidin conjugated HRP (1:10000 dilution in PBST buffer, Cat #: 016-030-084, Jackson ImmunoResearch) and incubated for 40 minutes at 37° C. The plates were washed again using wash buffer. […] The absorbance was read on a microplate reader using the dual wavelength mode with 450 nm for TMB and 630 nm as the reference wavelength, then the OD (450-630) values were plotted against the recombinant fusion protein or controls concentration. Data was analyzed using Graphpad Prism and IC₅₀ values were reported.

[2] = target: human CD40-Fc protein (Cat #: CD0-H5253, ACRO Biosystems) (human, UniProt P25942 21-193); assay: dual-binding ELISA: human CD40-Fc coated, binder titrated, detected with human CD47-his and anti-His-HRP, OD450
Method: (§2) The binding activity of the recombinant fusion proteins to human CD40 and CD47 was also tested by dual-binding ELISA assay. Briefly, 100 μl/well human CD40-Fc proteins (Cat #: CD0-H5253, ACRO Biosystems) were coated on 96-well plates at 0.2 μg/mL in PBS and incubated overnight at 2-8° C. The next day, the plates were washed 3 times using wash buffer (PBS+0.05% v/v Tween-20, PBST), and then blocked with block buffer (PBS+1% w/v BSA) for 3 hours at 37° C. The plates were then washed 3 times using the wash buffer.
(§3) Serially diluted recombinant fusion proteins of the disclosure or controls (starting at 100 nM with a 6-fold serial dilution) in block buffer were added to the CD40-Fc bound plates, 100 μL per well, and incubated at 37° C. for 1 hour. The plates were washed 3 times using wash buffer, and then added and incubated for 1 hour at 37° C. with 100 μl/well 3 μg/mL human CD47-his protein (Cat #: CD7-H5227, ACRO Biosystems). The plates were washed again using wash buffer, added with 100 μl/well Anti-His tag Antibody (HRP) (1:2000 dilution in block buffer, Cat #: 105327-MM02T-H, Sino Biological) and incubated for 1 hour at 37° C. The plates were washed again using wash buffer. […] The absorbance was read using a microplate reader set to 450 nm, then the OD (450) values were plotted against the recombinant fusion protein or controls concentration. Data was analyzed using Graphpad Prism and EC₅₀ values were reported.

[3] = target: T1, full length human CD40 (uniprot #P25942-1) on 293T-CD40 cells (human, UniProt P25942 21-277); assay: FACS on 293T-CD40 cells, detection with goat anti-human IgG (Fab)-PE, MFI
T1 construct: whole, on cells
Method: Following an incubation of 40 minutes at 4° C. in dark, cells were washed three times and resuspended in FACS buffer. Fluorescence was measured using a Becton Dickinson FACS Canto II-HTS equipment and plotted against the recombinant fusion protein or controls concentration. Data was analyzed using Graphpad Prism and EC₅₀ values were reported.

[4] = target: T2, biotin-labeled human CD47-Fc (Biosion in house made) (human, biotin-labeled (sites not given)); assay: competitive ELISA: binder premixed with biotin-labeled human CD47-Fc, blocked partner coated human CD172a-Fc, OD(450-630)
T2 construct: also called Human CD47-Fc protein
Method: as §1, with “CD47-CD172a” for “CD40-CD40L”, “CD172a-Fc” for “CD40-Fc”, “24)” for “22)”, “using” for “using the”
Serially diluted recombinant fusion proteins of the disclosure or controls (starting at 100 nM with a 5-fold serial dilution) were mixed with 20 ng/ml biotin-labeled human CD47-Fc (Biosion in house made, SEQ ID NO: 23) in PBST with 2.5% w/v non-fatty milk. The mixtures were incubated at 37° C. for 40 minutes, and respectively added to the CD172a-Fc bound plates, 100 μl per well. The plates were incubated at 37° C. for 40 minutes, washed 4 times using wash buffer, added with 100 μl/well streptavidin conjugated HRP (1:10000 dilution in PBST buffer, Cat #: 016-030-084, Jackson ImmunoResearch), incubated for 40 minutes at 37° C., and washed again using wash buffer. […] The plates were read on a microplate reader using the dual wavelength mode with 450 nm for TMB and 630 nm as the reference wavelength, and the OD (450-630) values were plotted against the recombinant fusion protein or controls concentration. Data was analyzed using Graphpad Prism and IC₅₀ values were reported. Wild-type SIRPαV2D1-Fc (IgG2) (SEQ ID NO: 21, X1=V, X2=K, X3=S, X4=K, X5=F) was used as a positive control.

[5] = target: T3, human CD47-his protein (Cat #: CD7-H5227, Acro biosystems) (human, UniProt Q08722 19-139); assay: SPR (Biacore T200), sample on Protein A chip, antigen-his analyte, 1:1 fit
T3 construct: Bought protein
Description: (§4) The purified recombinant fusion proteins were characterized for their binding affinity and binding kinetics by Biacore T200 system (GE healthcare, Pittsburgh, PA, USA). The anti-CD40 antibody HuCD40-C1H1-V2 (having the heavy chain and the light chain of SEQ ID NOs: 19 and 20), Selicrelumab (an agonistic anti-CD40 antibody, Roche Inc., prepared in-house with heavy and light chains of SEQ ID NOs: 27 and 28), and SIRPα-Fc fusion proteins, including SIRPαV2D1M1-Fc (IgG2) (SEQ ID NO: 21, X1=I, X2=R, X3=T, X4=K, X5=F), SIRPαV2D1M2-Fc (IgG2) (SEQ ID NO: 21, X1=I, X2=R, X3=T, X4=R, X5=V), SIRPα-isoform2-Fc (SEQ ID NO: 25) were used as positive controls.
(§5) A Protein A chip (Cat #: 29-1275-56, GE healthcare) was used for affinity determination. The recombinant fusion proteins of the disclosure and the positive controls each at the concentration of 2 μg/ml were respectively flowed onto the chip at a flow rate of 10 μl/min. Then, serially diluted recombinant human CD40-his proteins (Cat #: CD0-H5228, Acro biosystems), human CD47-his proteins (Cat #: CD7-H5227, Acro biosystems), cynomolgus CD40-his proteins (Biosion in house made, SEQ ID NO: 29) or cynomolgus CD47-his proteins (Cat #: CD7-C52H1, Acro biosystems), 2-fold dilution in HBS-EP⁺ buffer (provided by Biacore) with a starting concentration of 200 nM, were flowed onto the chip at a flow rate of 30 μl/min. The association kinetics was followed for 2 minutes and the dissociation kinetics was followed for 10 minutes. The association and dissociation curves were fit to a 1:1 Langmuir binding model using the Biacore evaluation software.

[6] = target: T4, recombinant human CD40-his protein (Cat #: CD0-H5228, Acro biosystems) (human, UniProt P25942 21-193); assay: as above
T4 construct: Bought protein
Description: as §4, §5

[7] = target: T3, human CD47-his protein (Cat #: …); assay: dual-binding ELISA: human CD40-Fc coated, binder titrated, detected with human CD47-his and anti-His-HRP, OD450
Method: as §2, §3

| IC50 [1] | EC50 [2] | EC50 [3] | IC50 [4] | Kd [5] | koff [5] | kon [5] | Kd [6] | koff [6] | kon [6] | binding result [7] | Binder |
| --- | --- | --- | --- | --- | --- | --- | --- | --- | --- | --- | --- |
| ~2.37 nM | 0.689 nM | 1.19 nM | 76.8 nM | 6.31 nM | 0.00686 s⁻¹ | 1.09e+06 M⁻¹ s⁻¹ | 0.729 nM | 0.00184 s⁻¹ | 2.53e+06 M⁻¹ s⁻¹ | – | BSI038×S-002 (bispecific antibody, human IgG2, kappa, Wild-type SIRPαV2D1 linked to N-terminus of each heavy chain of HuCD40-C1H1-V2 (human IgG2)) heavy: not shown light: EIVLTQSPATLSLSPGERATLSCRASQTINNNLHWYQQKPGQAPRLLIKYASQSISGIPARFSGSGSGTDFTLTISSLEPEDFAVYFCQQFSSWPLTFGGGTKVEIKRTVAAPSVFIFPPSDEQLKSGTASVVCLLNNFYPREAKVQWKVDNALQSGNSQESVTEQDSKDSTYSLSSTLTLSKADYEKHKVYACEVTHQGLSSPVTKSFNRGEC |
| 1.01 nM | – | 1.06 nM | – | – | – | – | 1.05 nM | 0.00169 s⁻¹ | 1.62e+06 M⁻¹ s⁻¹ | no binding (tested: 100 nM) | HuCD40-C1H1-V2 (antibody, human IgG2, kappa, V domains shown, Humanized anti-CD40 IgG with human IgG2 heavy chain constant region; also called anti-CD40 antibody HuCD40-C1H1-V2) VH: EVQLVESGGGLVKPGGSLRLSCAASGFTFSNYGISWVRQAPGKGLEWVSSISSGGDNTYYPDNVKGRFTISRDNAKNSLYLQMNSLRAEDTAVYYCARAGEKAMDYWGQGTLVTVSS VL: EIVLTQSPATLSLSPGERATLSCRASQTINNNLHWYQQKPGQAPRLLIKYASQSISGIPARFSGSGSGTDFTLTISSLEPEDFAVYFCQQFSSWPLTFGGGTKVEIKR |
